For orientation: EC50 means the midpoint of the concentration-response curve.

Here are results for 23 molecules from patent publication US20200002421A1 (AbbVie / Abbott, published 2020).

Numbering of substitutions follows the chain as printed.

T1: Human full length B7-H3 (human, UniProt Q5ZPR3 29-534)
T1 construct: on 3T12 transfectants, NCI-H1650 and other cells; also called huB7-H3; hu B7-H3
T1 sequence: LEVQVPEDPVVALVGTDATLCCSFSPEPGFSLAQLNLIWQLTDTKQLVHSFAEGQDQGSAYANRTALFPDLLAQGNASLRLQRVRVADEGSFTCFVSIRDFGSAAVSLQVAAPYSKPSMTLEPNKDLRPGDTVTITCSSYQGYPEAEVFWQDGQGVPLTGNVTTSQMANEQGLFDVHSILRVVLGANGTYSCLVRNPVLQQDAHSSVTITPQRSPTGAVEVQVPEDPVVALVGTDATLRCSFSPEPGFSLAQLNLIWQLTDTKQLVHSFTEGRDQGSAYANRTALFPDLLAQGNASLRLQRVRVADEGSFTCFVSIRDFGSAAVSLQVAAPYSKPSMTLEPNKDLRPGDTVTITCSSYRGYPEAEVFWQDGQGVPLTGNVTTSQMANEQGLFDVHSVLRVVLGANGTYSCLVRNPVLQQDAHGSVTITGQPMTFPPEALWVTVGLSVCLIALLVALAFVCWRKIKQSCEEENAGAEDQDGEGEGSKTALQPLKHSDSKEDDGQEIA

T2: hB7-H3 (ELISA antigen of Tables 17 and 20) (human, UniProt Q5ZPR3 29-466, limits assumed)
T2 sequence: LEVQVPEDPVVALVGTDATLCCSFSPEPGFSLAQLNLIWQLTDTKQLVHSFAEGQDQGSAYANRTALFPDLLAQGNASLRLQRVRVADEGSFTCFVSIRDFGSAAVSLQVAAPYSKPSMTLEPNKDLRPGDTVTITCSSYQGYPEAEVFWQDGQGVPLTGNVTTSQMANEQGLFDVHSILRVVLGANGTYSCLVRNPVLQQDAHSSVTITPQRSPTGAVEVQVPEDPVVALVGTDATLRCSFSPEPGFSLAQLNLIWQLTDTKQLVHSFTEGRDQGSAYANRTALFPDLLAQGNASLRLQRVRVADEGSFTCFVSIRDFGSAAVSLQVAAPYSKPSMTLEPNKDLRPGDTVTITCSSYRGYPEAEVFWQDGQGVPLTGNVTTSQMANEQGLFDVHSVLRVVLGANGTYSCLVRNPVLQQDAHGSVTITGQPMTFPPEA

B1: huAb3v2.2 (antibody, V domains shown)
VH: EVQLVQSGAEVKKPGSSVKVSCKASGYTFSSYWMHWVRQAPGQGLEWIGLIHPWSGSTNYNEMFKNRATLTVDRSTSTAYMELSSLRSEDTAVYYCAGGGRLYFDYWGQGTTVTVSS
VL: DIVMTQSPLSLPVTPGEPASISCRSSQSLVHSNRDTYLRWYLQKPGQSPQLLIYKVSNRFSGVPDRFSGSGSGTDFTLKISRVEAEDVGVYYCSQSTHVPYTFGGGTKVEIK
B2: huAb3v2.5 (antibody, human IgG1, kappa, L234A L235A, V domains shown)
VH: B1 VH with W54E
VL: DIVMTQSPLSLPVTPGEPASISCRSSQSLVHSNRDTYLRWYLQKPGQSPQLLIYKVSNRFSGVPDRFSGSGSGTDFTLKISRVEAEDVGVYYCSQSTHVPYTFGGGTKVEIKR
notes: Ig gamma-1 mutant / kappa
B3: huAb3v2.9 (antibody, V domains shown)
VH: B1 VH with W54I
VL: B1 VL with R34Q
B4: huAb3v2.3 (antibody, V domains shown)
VH: B1 VH
VL: B1 VL with R34Q
B5: huAb3v2 (antibody, V domains shown)
VH: B1 VH with W54D
VL: B1 VL with R34G
B6: huAb3v2.6 (antibody, human IgG1, kappa, L234A L235A, V domains shown)
VH: B1 VH with W54E
VL: B2 VL with R34Q
notes: Ig gamma-1 mutant / kappa
B7: huAb13v1-AAA (antibody, human IgG1, kappa, L234A L235A, V domains shown)
VH: EVQLQESGPGLVKPSETLSLTCAVTGYSITSGYSWHWIRQFPGNGLEWMGYIHSSGSTNYNPSLKSRISISRDTSKNQFFLKLSSVTAADTAVYYCAGYDDYFEYWGQGTTVTVSS
VL: DIQMTQSPSSLSASVGDRVTITCKASQNVGFNVAWYQQKPGKSPKALIYSASYRYSGVPSRFSGSGSGTDFTLTISSLQPEDFAEYFCQQYNWYPFTFGQGTKLEIKR
modifications: synthon AAA on interchain Cys
B8: huAb13v1-AAD (antibody, human IgG1, kappa, L234A L235A, V domains shown)
VH: B7 VH
VL: B7 VL
modifications: synthon AAD on interchain Cys
B9: huAb13v1-ZZ (antibody, human IgG1, kappa, L234A L235A, V domains shown)
VH: B7 VH
VL: B7 VL
modifications: synthon ZZ on interchain Cys
B10: huAb13v1-LB (antibody, human IgG1, kappa, L234A L235A, V domains shown)
VH: B7 VH
VL: B7 VL
modifications: synthon LB on interchain Cys
B11: huAb13v1-WD (antibody, human IgG1, kappa, L234A L235A, V domains shown)
VH: B7 VH
VL: B7 VL
modifications: synthon WD on interchain Cys
B12: huAb13v1-ZT (antibody, human IgG1, kappa, L234A L235A, V domains shown)
VH: B7 VH
VL: B7 VL
modifications: synthon ZT on interchain Cys
B13: huAb3v2.6-AAA (antibody, human IgG1, kappa, L234A L235A, V domains shown)
VH: B1 VH with W54E
VL: B2 VL with R34Q
modifications: synthon AAA on interchain Cys
B14: huAb3v2.6-ZT (antibody, human IgG1, kappa, L234A L235A, V domains shown)
VH: B1 VH with W54E
VL: B2 VL with R34Q
modifications: synthon ZT on interchain Cys
B15: huAb3v2.6-ZZ (antibody, human IgG1, kappa, L234A L235A, V domains shown)
VH: B1 VH with W54E
VL: B2 VL with R34Q
modifications: synthon ZZ on interchain Cys
B16: huAb3v2.6-WD (antibody, human IgG1, kappa, L234A L235A, V domains shown)
VH: B1 VH with W54E
VL: B2 VL with R34Q
modifications: synthon WD on interchain Cys
B17: huAb3v2.6-LB (antibody, human IgG1, kappa, L234A L235A, V domains shown)
VH: B1 VH with W54E
VL: B2 VL with R34Q
modifications: synthon LB on interchain Cys
B18: huAb3v2.6-AAD (antibody, human IgG1, kappa, L234A L235A, V domains shown)
VH: B1 VH with W54E
VL: B2 VL with R34Q
modifications: synthon AAD on interchain Cys
B19: huAb3v2.6-SE (antibody, human IgG1, kappa, L234A L235A, V domains shown)
VH: B1 VH with W54E
VL: B2 VL with R34Q
modifications: synthon SE on interchain Cys
B20: huAb3v2.6-XW (antibody, human IgG1, kappa, L234A L235A, V domains shown)
VH: B1 VH with W54E
VL: B2 VL with R34Q
modifications: synthon XW on interchain Cys
B21: huAb3v2.6-KZ (antibody, human IgG1, kappa, L234A L235A, V domains shown)
VH: B1 VH with W54E
VL: B2 VL with R34Q
modifications: synthon KZ on interchain Cys
B22: huAb3v2.6-SR (antibody, human IgG1, kappa, L234A L235A, V domains shown)
VH: B1 VH with W54E
VL: B2 VL with R34Q
modifications: synthon SR on interchain Cys
B23: huAb3v2.6-YG (antibody, human IgG1, kappa, L234A L235A, V domains shown)
VH: B1 VH with W54E
VL: B2 VL with R34Q
modifications: synthon YG on interchain Cys

In the first test the target is T3, Cynomolgous B7-H3 on cells (cynomolgus).
T3 construct: whole, on cells; also called cyno B7-H3; cyB7-H3
Briefly: FACS, 3T12 transfectants. For orientation: A flow cytometer gives signals particle by particle.
For B1, the midpoint of the response, the EC50, lay at 3.68 nM. B2 yielded an EC50 of 4.86 nM. B3 came in with an EC50 of 4.64 nM. B4 showed an EC50 of 4.03 nM. Still for that read-out and setting: the figure for B5 is 2.87 nM; for B6 it is 3.31 nM.

The target of a further test is T1, Human full length B7-H3. The test is described as follows: FACS, 3T12 transfectants.
In turn, B1 returned an EC50 of 5.29 nM. Still for that read-out and setting: the figure for B3 is 6.16 nM. On the same count and under the same terms, the figure for B4 is 6.5 nM. Consider B5, for which the EC50 was found to be 5.11 nM. This EC50 and that of the molecule before are within 1.5-fold of each other. B6 came in with an EC50 of 5.64 nM.

The next test concerns the target T1, Human full length B7-H3. The test is described as follows: cell-based or functional assay.
Consider B7, for which the “EC50 nM H1650 (in vitro tumor cell cytotoxicity)” value (“EC50 nM H1650” below) amounted to 0.37 nM. For B8, the “EC50 nM H1650” value came out at 0.21 nM. The same measure, in the same setting: the figure for B9 is 0.42 nM. As to B10, the “EC50 nM H1650” value was more than 133 nM. On the same count and under the same terms, the figure for B11 is 0.45 nM; for B12 it is 0.3 nM; for B13 it is 1.24 nM. The same measure, in the same setting: the figure for B14 is 1.11 nM; for B15 it is 1.35 nM. The same measure, in the same setting: the figure for B16 is 0.79 nM. B17: the “EC50 nM H1650” value came to 2.07 nM. Still for that read-out and setting: the figure for B18 is 0.85 nM; for B19 it is 1.01 nM; for B20 it is 2.4 nM. Still for that read-out and setting: the figure for B21 is 5.52 nM; for B22 it is 0.71 nM; for B23 it is 0.68 nM.

For another test, the target named is T2, hB7-H3 (ELISA antigen of Tables 17 and …). The test is described as follows: ELISA.
The molecule B1 registered an EC50 of 0.1 nM. The molecule B2 came in with an EC50 of 0.13 nM. The EC50 values of the last two molecules are within 1.5-fold of each other. B3 registered an EC50 of 0.16 nM. Still for that read-out and setting: the figure for B4 is 0.11 nM; for B5 it is 0.44 nM; for B6 it is 0.09 nM.
